Molecular target: the molecule itself
Test: native MS

B1: Conalbumin (Ovotransferrin/OVT) from chicken egg white (natural protein, UniProt P02789 20-705, looked up)
chain: APPKSVIRWCTISSPEEKKCNNLRDLTQQERISLTCVQKATYLDCIKAIANNEADAISLDGGQAFEAGLAPYKLKPIAAEVYEHTEGSTTSYYAVAVVKKGTEFTVNDLQGKTSCHTGLGRSAGWNIPIGTLLHRGAIEWEGIESGSVEQAVAKFFSASCVPGATIEQKLCRQCKGDPKTKCARNAPYSGYSGAFHCLKDGKGDVAFVKHTTVNENAPDQKDEYELLCLDGSRQPVDNYKTCNWARVAAHAVVARDDNKVEDIWSFLSKAQSDFGVDTKSDFHLFGPPGKKDPVLKDLLFKDSAIMLKRVPSLMDSQLYLGFEYYSAIQSMRKDQLTPSPRENRIQWCAVGKDEKSKCDRWSVVSNGDVECTVVDETKDCIIKIMKGEADAVALDGGLVYTAGVCGLVPVMAERYDDESQCSKTDERPASYFAVAVARKDSNVNWNNLKGKKSCHTAVGRTAGWVIPMGLIHNRTGTCNFDEYFSEGCAPGSPPNSRLCQLCQGSGGIPPEKCVASSHEKYFGYTGALRCLVEKGDVAFIQHSTVEENTGGKNKADWAKNLQMDDFELLCTDGRRANVMDYRECNLAEVPTHAVVVRPEKANKIRDLLERQEKRFGVNGSEKSKFMMFESQNKDLLFKDLTKCLFKVREGTTYKEFLGDKFYTVISSLKTCNPSDILQMCSFLEGK
In the case of B1, the “stoichiometry N” value is reported as 2.

Reference: article doi:10.1101/2023.01.09.523258 (bioRxiv, 2023)
